The assay addresses GPdM (EBOV, UniProt Q05320 33-632). As to the kind of experiment: ELISA on coated truncated GP, method as example 2. Background: An ELISA detects its analyte on a solid surface through an enzyme-linked reagent.

B1: 单克隆抗体8F9 (antibody, V domains shown)
VH: EVQLLESGGGLVQPGGSLRLSCAASEFTFSNYAMNWVRQAPGKGLEWVSGISTRGSSTYYADSVKGRFTISRDNSKNTLYLQMNSLRVEDTAVYYCAKDRLSVFGVVLISSDYYGMDVWGQGTTVTVSS
VL: AIRMTQSPFSLSASVGDRVTITCRASRTISSYLNWYQKKPGKAPKLLIYAASSLQSGVPSRFSGSGSGTDFTLTISSLQPEDFATYYCQQSYSTPMTFGQGTRLEIKT
As usually defined, the EC50 is the concentration that produces a half-maximal response. A low value points to higher potency in that assay. Consider B1, for which the concentration giving a half-maximal response (EC50) amounted to 6.2 ng/mL.
